In data set [1] the target is T1, OR-1 (UniProt Q62755 SEQ:1-446).
T1 sequence: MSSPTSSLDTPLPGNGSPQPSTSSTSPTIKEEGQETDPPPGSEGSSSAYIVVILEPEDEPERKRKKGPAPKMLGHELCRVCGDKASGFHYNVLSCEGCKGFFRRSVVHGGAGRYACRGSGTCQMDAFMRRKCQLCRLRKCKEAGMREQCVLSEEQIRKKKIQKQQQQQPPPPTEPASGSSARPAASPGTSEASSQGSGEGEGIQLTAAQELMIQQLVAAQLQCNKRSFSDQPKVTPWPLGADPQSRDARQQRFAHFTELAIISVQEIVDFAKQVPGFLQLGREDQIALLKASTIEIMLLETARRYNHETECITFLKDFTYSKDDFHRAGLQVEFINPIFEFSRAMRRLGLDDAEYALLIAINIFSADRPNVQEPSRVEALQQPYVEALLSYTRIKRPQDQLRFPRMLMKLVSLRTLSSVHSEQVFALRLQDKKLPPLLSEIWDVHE
Briefly: EMSA; OR-1 alone. The settings on record: tags: none; TNT reticulocyte lysate; label: 32P. How it is done:
(§1) Gel shifts were performed using in vitro-translated OR-1 and RXR with the commercially-available TNT™-coupled reticulocyte lysate system (Promega, Madison USA). Proteins were incubated on ice for 15 min with 4 μg of poly (dI-dC) and with unlabelled competitor DNA where indicated in a solution comprising 100 mM KCl; 10 mM Hepes, pH 7.6; 1 mM dithiothreitol; 1 mM EDTA; 10% (wt./vol) glycerol, before addition of 0.5 ng of a ^32P-end labelled oligonucleotide probe. The reaction mixtures were incubated for a further 10 min at 22° C. before electrophoresis at 200V and 4° C. in pre-run 4% polyacryliamide/0.25 TBE (0.089 m tris-borate pH 8.3, 0.025 EDTA) gels. The following oligonucleotides and their complements were used as probes: DR0 […] (SEQ ID NO:3) DR1 […] (SEQ ID NO:4) DR2 […] (SEQ ID NO:5) DR3 […] (SEQ ID NO:6) DR4 […] (SEQ ID NO:7) DR5 […] (SEQ ID NO:8) DR6 […] (SEQ ID NO:9)
On the technique in general: In EMSA bound probe runs differently from free probe, usually more slowly.

In data set [2] the target is T1, OR-1. Briefly: EMSA; OR-1 alone. The settings on record: tags: none; TNT reticulocyte lysate; label: 32P. How it is done: as §1
(§2) The appearance of this complex depends on the presence of RXR and is inhibited by a 10-fold excess of the specific DNA target element, but not by a 100-fold excess of an unrelated DNA element—see FIG. 5B, lane 7)
This is another data set of the same source.

Data set [3] has as its target T2, RXR (RXRalpha) (UniProt Q05343 Q05343:1-467).
T2 sequence: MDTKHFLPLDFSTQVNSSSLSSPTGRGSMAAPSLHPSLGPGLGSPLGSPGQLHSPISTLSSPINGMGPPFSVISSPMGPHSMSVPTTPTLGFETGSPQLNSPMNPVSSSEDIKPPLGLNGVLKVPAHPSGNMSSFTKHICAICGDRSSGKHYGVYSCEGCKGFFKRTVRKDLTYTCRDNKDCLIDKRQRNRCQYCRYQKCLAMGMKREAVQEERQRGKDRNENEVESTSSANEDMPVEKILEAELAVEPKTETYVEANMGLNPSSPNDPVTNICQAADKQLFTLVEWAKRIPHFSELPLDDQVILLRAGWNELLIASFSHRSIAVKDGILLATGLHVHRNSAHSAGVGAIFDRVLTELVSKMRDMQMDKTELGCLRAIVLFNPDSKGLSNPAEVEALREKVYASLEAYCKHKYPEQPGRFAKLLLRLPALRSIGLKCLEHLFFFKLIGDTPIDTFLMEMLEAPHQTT
Briefly: EMSA; RXR alone. The note with it: tags: none; pRRXR-T7, TNT reticulocyte lysate; label: 32P. As to the method: as §1, §2

Data set [4] addresses T3, OR-1/RXR heterodimer (UniProt Q62755;Q05343 Q62755:1-446,Q05343:1-467).
T3 sequence 1: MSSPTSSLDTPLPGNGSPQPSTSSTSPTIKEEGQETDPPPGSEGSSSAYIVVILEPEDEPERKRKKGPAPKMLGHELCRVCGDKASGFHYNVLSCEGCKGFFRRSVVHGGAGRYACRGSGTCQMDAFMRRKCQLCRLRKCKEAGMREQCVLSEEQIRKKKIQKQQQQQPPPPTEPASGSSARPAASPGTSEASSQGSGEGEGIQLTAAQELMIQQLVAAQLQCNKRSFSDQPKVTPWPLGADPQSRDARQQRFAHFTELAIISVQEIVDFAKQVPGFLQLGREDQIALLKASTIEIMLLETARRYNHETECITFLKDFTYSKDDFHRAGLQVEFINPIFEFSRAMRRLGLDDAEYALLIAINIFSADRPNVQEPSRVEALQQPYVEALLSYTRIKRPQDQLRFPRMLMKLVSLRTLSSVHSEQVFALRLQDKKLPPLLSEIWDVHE
T3 sequence 2: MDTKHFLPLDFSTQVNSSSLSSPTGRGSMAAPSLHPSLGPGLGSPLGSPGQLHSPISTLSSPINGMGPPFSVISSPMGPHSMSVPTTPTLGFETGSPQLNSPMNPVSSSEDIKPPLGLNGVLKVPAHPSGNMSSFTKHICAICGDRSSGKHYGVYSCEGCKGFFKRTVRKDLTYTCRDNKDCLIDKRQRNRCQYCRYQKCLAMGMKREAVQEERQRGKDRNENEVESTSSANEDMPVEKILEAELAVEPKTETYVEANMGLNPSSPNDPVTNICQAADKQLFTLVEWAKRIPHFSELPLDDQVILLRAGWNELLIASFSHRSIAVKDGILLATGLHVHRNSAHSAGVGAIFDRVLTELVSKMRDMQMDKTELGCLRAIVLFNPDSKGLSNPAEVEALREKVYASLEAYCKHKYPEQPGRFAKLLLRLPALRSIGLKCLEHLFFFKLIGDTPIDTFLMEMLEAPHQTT
The data set can be described thus: EMSA; 100 mM KCl, 10 mM Hepes pH 7.6, 1 mM EDTA, 22 C; inhibited by 10-fold excess specific DNA, not by 100-fold unrelated DNA. The note with it: tags: RXR from pRRXR-T7; label: 32P. As to the method: as §1, §2

B1: DR6 (dsDNA)
DNA 1: AGTCAGGTCACTCGTTAGGTCAGTCA
DNA 2: TGACTGACCTAACGAGTGACCTGACT
On to B1, for which the binding result in data set [1] was “no binding”.

B2: DR3 (dsDNA)
DNA 1: AGTCCAGGTCACTCAGGTCAGTCA
DNA 2: TGACTGACCTGAGTGACCTGGACT
Consider B2, for which the binding result in data set [1] was “no binding”.

B3: DR5 (dsDNA)
DNA 1: AGTCAGGTCACTCGTAGGTCAGTCA
DNA 2: TGACTGACCTACGAGTGACCTGACT
Turning to B3, the binding result in data set [1] is listed as “no binding”.

B4: DR2 (dsDNA)
DNA 1: AGCTTAGGTCACCAGGTCAGTTCA
DNA 2: TGAACTGACCTGGTGACCTAAGCT
B4: the binding result in data set [2] is “no binding”.

B5: DR0 (dsDNA)
DNA 1: AGCTTCAGGTCAAGGTCAGGTTCA
DNA 2: TGAACCTGACCTTGACCTGAAGCT
For B5, the binding result in data set [1] was “no binding”.

B6: DR4 (dsDNA)
DNA 1: AGTCAGGTCACTCGAGGTCAGTCA
DNA 2: TGACTGACCTCGAGTGACCTGACT
For the molecule B6, the binding result in data set [3] was “no binding”; in data set [4] it was “binds”; in data set [2], “no binding”.

B7: DR1 (dsDNA)
DNA 1: AGCTTCAGGTCACAGGTCAGTTCA
DNA 2: TGAACTGACCTGTGACCTGAAGCT
In the case of B7, in data set [1], the binding result is listed as “no binding”.

The record behind these values is patent publication US6277976, “Or-1, an orphan receptor belonging to the nuclear receptor family” (Karo Bio AB).
